Substitutions are numbered along the chain they refer to.
B1: A3 (designed binder)
chain: EVVAATPTSLLISWRHPHFPTRYYRITYGETGGNSPVQEFTVPLQPPTATISGLKPGVDYTITGYAVTDGWNGKMLSVPISINYRT
notes: 10Fn3 clone, Del 1-8
B2: C1 (designed binder)
chain: B1 chain with D69Q, G70E, W71R, K74R, M75E, S77R, V78T
notes: 10Fn3 clone, Del 1-8
B3: B10 (designed binder)
chain: B1 chain with D69L, G70E, W71R, K74R, M75E, S77N, V78T
notes: 10Fn3 clone, Del 1-8
B4: C7 (designed binder)
chain: B1 chain with D69H, G70E, W71R, K74R, M75V, S77M, V78T
notes: 10Fn3 clone, Del 1-8
B5: D4 (designed binder)
chain: B1 chain with D69V, G70E, W71R, K74R, M75T, S77F, V78T
notes: 10Fn3 clone, Del 1-8
B6: C8 (designed binder)
chain: B1 chain with D69L, G70E, W71R, K74R, M75V, S77I, V78T
notes: 10Fn3 clone, Del 1-8
B7: A10 (designed binder)
chain: B1 chain with D69F, K74R, M75E, S77L, V78T
notes: 10Fn3 clone, Del 1-8
B8: A7 (designed binder)
chain: B1 chain with W71P, G73N, K74R, M75E, S77I
notes: 10Fn3 clone, Del 1-8
B9: C11 (designed binder)
chain: B1 chain with D69V, G70E, W71R, K74R, M75V, S77I
notes: 10Fn3 clone, Del 1-8
B10: D7 (designed binder)
chain: B1 chain with D69V, G70E, W71R, M75V, S77M, V78T
notes: 10Fn3 clone, Del 1-8
B11: D2 (designed binder)
chain: B1 chain with D69V, G70E, W71R, K74R, M75N, S77M, V78T
notes: 10Fn3 clone, Del 1-8
B12: B5 (designed binder)
chain: B1 chain with D69Q, G70E, W71R, K74R, M75E, S77M, V78T
notes: 10Fn3 clone, Del 1-8
B13: B7, B8 (designed binder)
chain: B1 chain with D69V, G70E, W71R, K74R, M75E, S77L, V78T
notes: 10Fn3 clone, Del 1-8
B14: C9 (designed binder)
chain: B1 chain with D69V, G70E, W71R, K74L, M75V, S77M, V78T
notes: 10Fn3 clone, Del 1-8
B15: D5 (designed binder)
chain: B1 chain with D69V, G70E, W71R, K74R, M75T, S77M, V78M
notes: 10Fn3 clone, Del 1-8
B16: C6 (designed binder)
chain: B1 chain with D69L, G70E, W71R, K74R, M75V, S77M, V78T
notes: 10Fn3 clone, Del 1-8
B17: A9 (designed binder)
chain: B1 chain with D69E, G73D, K74R, M75E, S77F
notes: 10Fn3 clone, Del 1-8
B18: C12 (designed binder)
chain: B1 chain with D69V, G70E, W71R, K74R, M75V
notes: 10Fn3 clone, Del 1-8
B19: B12 (designed binder)
chain: B1 chain with D69V, G70E, W71R, K74R, M75E, S77R, V78T
notes: 10Fn3 clone, Del 1-8
B20: B6 (designed binder)
chain: B1 chain with D69L, G70E, W71R, M75E, S77M, V78T
notes: 10Fn3 clone, Del 1-8
B21: B4 (designed binder)
chain: B1 chain with D69N, G70E, W71R, K74R, M75E, S77M, V78T
notes: 10Fn3 clone, Del 1-8
B22: A4 (designed binder)
chain: B1 chain with W71Y, G73D, K74R, M75L, S77F, V78I
notes: 10Fn3 clone, Del 1-8
B23: C3 (designed binder)
chain: B1 chain with D69L, G70E, W71R, K74R, M75E, S77M, V78I
notes: 10Fn3 clone, Del 1-8
B24: D1 (designed binder)
chain: B1 chain with D69V, G70E, W71R, K74R, S77M, V78T
notes: 10Fn3 clone, Del 1-8
B25: A12 (designed binder)
chain: B1 chain with D69V, G70E, K74R, M75V, S77M, V78T
notes: 10Fn3 clone, Del 1-8
B26: D3 (designed binder)
chain: B1 chain with D69V, G70E, W71R, K74R, M75A, S77M, V78T
notes: 10Fn3 clone, Del 1-8
B27: A11 (designed binder)
chain: B1 chain with D69L, G70E, G73N, K74R, M75V, S77M, V78T
notes: 10Fn3 clone, Del 1-8
B28: B3 (designed binder)
chain: B1 chain with D69M, G70E, W71R, K74R, M75E, S77M, V78T
notes: 10Fn3 clone, Del 1-8
B29: C10 (designed binder)
chain: B1 chain with D69V, G70E, W71R, K74R, M75V, S77I, V78I
notes: 10Fn3 clone, Del 1-8
B30: C2 (designed binder)
chain: B1 chain with D69V, G70E, W71R, K74R, M75E, S77L, V78W
notes: 10Fn3 clone, Del 1-8
B31: A8 (designed binder)
chain: B1 chain with W71L, M75Y, S77F
notes: 10Fn3 clone, Del 1-8
B32: D9 (designed binder)
chain: B1 chain with D69E, G70E, W71R, K74R, M75V, S77F, V78T
notes: 10Fn3 clone, Del 1-8
B33: D6 (designed binder)
chain: B1 chain with D69V, G70E, W71R, M75T, S77M, V78T
notes: 10Fn3 clone, Del 1-8
B34: F12 (designed binder)
chain: B1 chain with W71R, K74H, M75E, S77M, V78T
notes: 10Fn3 clone, Del 1-8
B35: B11 (designed binder)
chain: B1 chain with D69V, G70E, W71R, K74R, M75E, S77K, V78T
notes: 10Fn3 clone, Del 1-8
B36: G1 (designed binder)
chain: B1 chain with D69E, W71R, K74R, M75E, S77M
notes: 10Fn3 clone, Del 1-8
B37: 4′H7 PR4 (designed binder)
chain: B1 chain with D69L, G70A, W71H, G73D, K74H, M75E, S77L, V78T
notes: Del 1-8
B38: 4′H12 PR4 (designed binder)
chain: B1 chain with D69V, G70A, W71H, G73D, K74H, M75E, S77L, V78T
notes: Del 1-8
B39: 2′E4-PR4 (designed binder)
chain: VSDVPRDLEVVAATPTSLLISWRHPHFPTRYYRITYGETGGNSPVQEFTVPLQPPTATISGLKPGVDYTITGYAVTVHWNGHELMTPISINYRT
notes: WT N-terminus
B40: 2′H4-PR4 (designed binder)
chain: B39 chain with H78G, W79P, G81E, H82R, E83M
notes: WT N-terminus
B41: 2′C6-PR4 (designed binder)
chain: B39 chain with V77M, H78G, W79F, N80M, G81A, T86V
notes: WT N-terminus
B42: 2′D6-PR4 (designed binder)
chain: B39 chain with H78T, W79H, E83P
notes: WT N-terminus

The binders below were run against T1, human vascular endothelial growth factor receptor-2 Fc chimera (KDR-Fc) (human, UniProt P35968 20-764) (assay: radioactive equilibrium binding assay, 1 nM KDR-Fc, % of input bound).
T1 construct: range 1-764; also called human VEGFR-2; not shown: human IgG1 Fc
Description: (§1) To prepare ³⁵S-labeled binding proteins for analysis, mRNA was prepared as described above for RNA-protein fusion production but the linker ligation step was omitted. The mRNA was expressed using rabbit reticulocyte lysate translation kit (Ambion) in the presence of ³⁵S-labeled Met at 30° C. for 1 hour. Expressed protein was purified on M2-agarose Flag beads (Sigma) as described above. This procedure produced the encoded protein without the nucleic acid tail. In a direct binding assay, VEGF-R2-Fc fusions in concentrations ranging from 0 to 200 nM were added to a constant concentration of the purified protein (0.2 or 0.5 nM) and incubated at 30° C. for 1 hour in buffer B. The receptor-binder complexes were captured using Protein A magnetic beads for another 10 minutes at room temperature using a Kingfisher™ The beads were washed with six reaction volumes of buffer B. The protein was eluted from the beads with 100 μL of 0.1 M KOH. […] of the reaction mixture and elution were dried onto a LumaPlate-96 (Packard) and the amount of ³⁵S on the plate was measured using a TopCount NXT instrument (Packard). The amount of fibronectin-based scaffold protein bound to the target was estimated as a percent of radioactivity eluted from Protein A magnetic beads compare to radioactivity in the reaction mixture. Nonspecific binding of fibronectin-based scaffold proteins to the beads was determined by measuring binding in the absence of KDR-Fc and represented less than 1-2% of the input. Specific binding was obtained through subtraction of nonspecific binding from total binding. Data was analyzed using the GraphPad Prizm software (GraphPad Software, Inc, San Diego, Calif.), fitted using a one site, non-linear binding equation.
T1 sequence (P35968 20-764 limits assumed, change not shown, form in doubt): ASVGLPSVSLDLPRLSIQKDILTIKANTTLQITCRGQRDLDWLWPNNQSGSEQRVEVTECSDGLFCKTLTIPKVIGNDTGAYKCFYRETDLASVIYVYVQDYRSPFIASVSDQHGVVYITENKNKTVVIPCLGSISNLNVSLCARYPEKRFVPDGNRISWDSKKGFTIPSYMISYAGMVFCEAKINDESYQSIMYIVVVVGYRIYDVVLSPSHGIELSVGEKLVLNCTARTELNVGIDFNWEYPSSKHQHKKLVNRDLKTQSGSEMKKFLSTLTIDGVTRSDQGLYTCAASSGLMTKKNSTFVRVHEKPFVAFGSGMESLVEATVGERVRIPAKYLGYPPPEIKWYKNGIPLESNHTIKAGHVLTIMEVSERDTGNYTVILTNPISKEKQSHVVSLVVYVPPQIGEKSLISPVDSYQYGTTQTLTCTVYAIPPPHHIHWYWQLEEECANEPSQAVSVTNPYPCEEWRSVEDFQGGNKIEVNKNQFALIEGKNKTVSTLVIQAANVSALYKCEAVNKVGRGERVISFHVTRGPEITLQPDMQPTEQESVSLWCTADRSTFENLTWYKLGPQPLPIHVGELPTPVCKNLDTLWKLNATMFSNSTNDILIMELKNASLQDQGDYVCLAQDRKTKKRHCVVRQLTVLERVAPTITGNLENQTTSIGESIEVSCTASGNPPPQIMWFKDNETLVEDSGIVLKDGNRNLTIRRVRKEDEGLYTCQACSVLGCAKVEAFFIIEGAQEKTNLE

| Binding to 1 nM KDR, % | Binder |
| --- | --- |
| 33% | B1 |
| 28% | B2 |
| 15% | B3 |
| 32% | B4 |
| 27% | B5 |
| 30% | B6 |
| 34% | B7 |
| 18% | B8 |
| 19% | B9 |
| 39% | B10 |
| 35% | B11 |
| 27% | B12 |
| 18% | B13 |
| 33% | B14 |
| 38% | B15 |
| 36% | B16 |
| 31% | B17 |
| 24% | B18 |

| Binding to 1 nM KDR, % | Binder |
| --- | --- |
| 29% | B19 |
| 23% | B20 |
| 19% | B21 |
| 46% | B22 |
| 31% | B23 |
| 38% | B24 |
| 40% | B25 |
| 36% | B26 |
| 26% | B27 |
| 33% | B28 |
| 24% | B29 |
| 40% | B30 |
| 38% | B31 |
| 31% | B32 |
| 32% | B33 |
| 17% | B34 |
| 29% | B35 |
| 22% | B36 |

Each binder was assayed against T2, mouse vascular endothelial growth factor receptor-2 Fc chimera (Flk-1-Fc) (mouse, UniProt P35918 20-762) (assay: radioactive equilibrium binding assay, 1 nM Flk-1-Fc, % of input bound).
T2 construct: Bought from R&D Systems; also called mouse VEGFR-2; not shown: Fc part of the purchased chimera, not specified
Description: as §1

T2 sequence (P35918 20-762, change not shown): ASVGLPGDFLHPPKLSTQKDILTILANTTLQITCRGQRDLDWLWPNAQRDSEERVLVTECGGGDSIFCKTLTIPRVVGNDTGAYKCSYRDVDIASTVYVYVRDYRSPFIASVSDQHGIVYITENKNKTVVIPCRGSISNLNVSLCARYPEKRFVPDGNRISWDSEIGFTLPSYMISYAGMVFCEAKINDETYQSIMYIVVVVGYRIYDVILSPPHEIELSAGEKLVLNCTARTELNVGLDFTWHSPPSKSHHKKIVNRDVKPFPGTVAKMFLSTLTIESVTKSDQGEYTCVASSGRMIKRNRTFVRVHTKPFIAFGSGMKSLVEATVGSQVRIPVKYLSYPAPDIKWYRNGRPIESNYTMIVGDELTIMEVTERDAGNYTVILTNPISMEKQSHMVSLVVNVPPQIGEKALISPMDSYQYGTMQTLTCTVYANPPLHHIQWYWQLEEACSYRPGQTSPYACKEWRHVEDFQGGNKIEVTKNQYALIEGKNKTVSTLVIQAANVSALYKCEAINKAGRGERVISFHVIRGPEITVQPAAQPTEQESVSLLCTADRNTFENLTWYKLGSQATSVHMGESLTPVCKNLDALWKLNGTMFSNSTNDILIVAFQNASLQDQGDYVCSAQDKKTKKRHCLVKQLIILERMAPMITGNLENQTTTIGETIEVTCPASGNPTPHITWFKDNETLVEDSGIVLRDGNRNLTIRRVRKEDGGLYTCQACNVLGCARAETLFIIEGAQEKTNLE

| Binding to 1 nM Flk-1, % | Binder |
| --- | --- |
| 7% | B1 |
| 13% | B2 |
| 23% | B3 |
| 40% | B4 |
| 44% | B5 |
| 34% | B6 |
| 4% | B7 |
| 2% | B8 |
| 21% | B9 |
| 27% | B10 |
| 30% | B11 |
| 24% | B12 |
| 10% | B13 |
| 7% | B14 |
| 23% | B15 |
| 49% | B16 |
| 4% | B17 |

| Binding to 1 nM Flk-1, % | Binder |
| --- | --- |
| 20% | B18 |
| 24% | B19 |
| 11% | B20 |
| 12% | B21 |
| 2% | B22 |
| 17% | B23 |
| 38% | B24 |
| 10% | B25 |
| 30% | B26 |
| 6% | B27 |
| 27% | B28 |
| 17% | B29 |
| 16% | B30 |
| 4% | B31 |
| 40% | B32 |
| 30% | B33 |

What follows are binders tested against T3, human vascular endothelial growth factor receptor-2 Fc chimera (KDR-Fc) (human, UniProt P35968 20-764) (assay: radioactive equilibrium binding, 1 nM KDR-Fc).
T3 construct: range 1-764; also called human VEGFR-2; VEGF-R2-Fc; not shown: human IgG1 Fc
Procedure, shortened: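 Receptor-Fc fusions titrated from 0 to 200 nM against a fixed 0.2 or 0.5 nM of ³⁵S-labeled scaffold protein for 1 h at 30° C. Protein A bead pull-down followed by scintillation counting of eluate versus reaction mixture. Specific binding is total minus no-receptor binding, fitted to a one-site nonlinear equation.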
T3 sequence (P35968 20-764 limits assumed, change not shown, form in doubt): as the sequence (P35968 20-764 limits assumed, change not shown, form in doubt) above

| Binding to 1 nM KDR, % | Binder |
| --- | --- |
| 29% | B37 |
| 17% | B38 |
| 22% | B39 |
| 17% | B40 |
| 16% | B41 |
| 22% | B42 |

Reference: patent US20140179896A1 (published 2014)
